Test results: the supplement of paper PMC10724198
± gives the standard deviation of the averaged measurements.

system: Saccharomyces cerevisiae; test: protein stability index of tFT-peptide fusion (C-terminal peptide) (PSI (0-1 scale)); higher = more stable (slower turnover); conditions: genetic background: wild type; temperature: 30 C
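Also: PSI is a weighted mean of sequencing reads over stability bins, variants kept only with over 10 reads, mCherry proximal and sfGFP distal, peptide attached via GGGS linker.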

Sequence | protein stability index
VFLRGWGRSEGG | 0.679 ± 0.012
VFLRVGAPPVRI | 0.586 ± 0.032
VFNSFPLRLFGL | 0.693 ± 0.023
VFRFCCQTGALR | 0.671 ± 0.02
VFSCWQFAGGGY | 0.69 ± 0.037
VFSLLRCLFRPP | 0.669 ± 0.012
VFSLPFPSRSPL | 0.805 ± 0.028
VFVGGGCRGFCL | 0.624 ± 0.075
VFVPPPPSPSSL | 0.683 ± 0.01
VFYLNLLNQTRV | 0.629 ± 0.016
VGAFCLLLGFEG | 0.599 ± 0.038
VGGAVGAVGGGG | 0.651 ± 0.02
VGGCRVRDVAGE | 0.686 ± 0.042
VGGCVVSFSANR | 0.657 ± 0.043
VGGGGSLVVESG | 0.70581 ± 0.00064
VGGIGKGSWRWM | 0.6466 ± 0.0034
VGGVDMCGARVV | 0.754 ± 0.032
VGGVWWGGWGHW | 0.733 ± 0.039
VGHVVVRLWPHE | 0.665 ± 0.013
VGKVRGLEAVEE | 0.683 ± 0.0052
VGLPPVAGLVTG | 0.751 ± 0.073
VGRERGRAACGE | 0.662 ± 0.049
VGRGEEYYGMEV | 0.634 ± 0.0066
VGSRLVYSAFNV | 0.69 ± 0.01
VGSTKMRYFGEG | 0.692 ± 0.018
VGVCVGWDGRLW | 0.691 ± 0.025

Sequence | protein stability index
VGVGGGSVASCV | 0.671 ± 0.018
VGVRGGRFWAGA | 0.682 ± 0.018
VHHHQTTCHRHR | 0.682 ± 0.018
VHKMAARGATRL | 0.647 ± 0.036
VHVSRHGSSIAF | 0.74 ± 0.008
VIDLIYSMKVRR | 0.688 ± 0.034
VIKRQSERRYLV | 0.587 ± 0.039
VIMGLKYYRKCE | 0.658 ± 0.014
VIQKHAMGDALL | 0.699 ± 0.03
VISLPWRPKSWW | 0.739 ± 0.07
VIWAPVLAFSVR | 0.638 ± 0.051
VKEKRDLSNYNI | 0.677 ± 0.037
VKGLFLHFLESS | 0.695 ± 0.042
VKGVGNTAGRGV | 0.659 ± 0.023
VLAFSPCPPPPP | 0.657 ± 0.026
VLAGLTWQIAEL | 0.668 ± 0.023
VLEAIIFRKHDN | 0.74 ± 0.14
VLFCSVSFGGGQ | 0.614 ± 0.091
VLGFLGWPCSSS | 0.76 ± 0.0078
VLGKIIKLSTYS | 0.629 ± 0.059
VLHAGACARANR | 0.708 ± 0.043
VLIAIIRYGPYT | 0.538 ± 0.0021
VLLATPFSAIFR | 0.6907 ± 0.0057
VLLGSEGGVQSR | 0.646 ± 0.011
VLLLSPPLRPCP | 0.69 ± 0.024
VLNSTSFLNKNL | 0.712 ± 0.059

Sequence | protein stability index
VLRPVSCTKLAA | 0.656 ± 0.083
VLRRADLGYPRV | 0.663 ± 0.048
VLRRALIIELLE | 0.66 ± 0.025
VLRVWGCGEVGV | 0.69 ± 0.019
VLSFLSSFFVRV | 0.65 ± 0.079
VLSLLPFSPFSP | 0.735 ± 0.096
VLSRPLSFPAGI | 0.61 ± 0.047
VLTPLPWSRCSP | 0.7017 ± 0.0061
VLVSSLSSSKFF | 0.647 ± 0.088
VLVTWLESVGGL | 0.634 ± 0.027
VLVVFVGDSSKR | 0.662 ± 0.039
VLYGRFSLLGWC | 0.595 ± 0.042
VMFACAGVETRR | 0.745 ± 0.037
VMGAGGGSRSRV | 0.677 ± 0.037
VMTRNERGQERK | 0.675 ± 0.038
VMVTYCSEVQDR | 0.693 ± 0.011
VNGLVLFEYLMV | 0.579 ± 0.029
VNILRVYHVARA | 0.564 ± 0.097
VNPWLRCSFRFW | 0.6881 ± 0.0066
VNRDYLGTNKSS | 0.604 ± 0.017
VNTNLRSTRSNT | 0.7271 ± 0.0061
VNVCIAEYGNDR | 0.768 ± 0.062
VPFPFLPPSPSL | 0.87 ± 0.14
VPFVGLGLKVRV | 0.6236 ± 0.0057
VPGFARLFGLLD | 0.737 ± 0.047
VPGFCYKERAVV | 0.673 ± 0.034

Sequence | protein stability index
VPGQRRPSQSPR | 0.653 ± 0.21
VPISLSVVVLPV | 0.569 ± 0.017
VPKRLLSFDQGG | 0.6801 ± 0.0032
VPLSALPPPPPA | 0.703 ± 0.027
VPPDTAPPPPRR | 0.6994 ± 0.0055
VPPPLRPLPPPP | 0.629 ± 0.14
VPPSPPRPPPPS | 0.697 ± 0.053
VPRAVACDCVLL | 0.6845 ± 0.0051
VPSPRHFPLPPP | 0.647 ± 0.049
VPTSLGAYLRMV | 0.511 ± 0.014
VPWTPPRVERVP | 0.737 ± 0.036
VQCSLWYARLIL | 0.513 ± 0.033
VQLGRRGQAVEP | 0.7 ± 0.036
VQRFLGSCPLSI | 0.611 ± 0.051
VQSLCGDCGCCL | 0.735 ± 0.04
VRERWNTKKKKK | 0.64 ± 0.057
VRGLGVIGVCVL | 0.741 ± 0.019
VRGLHRRFEPSN | 0.8 ± 0.088
VRGLYEHSLGSR | 0.741 ± 0.066
VRIARSYERGGK | 0.701 ± 0.059
VRLPLHHPIPNS | 0.7179 ± 0.0063
VRPCLYPCSRTV | 0.708 ± 0.03
VRRGGGHRWVVW | 0.705 ± 0.016
VRRQADRAGRIS | 0.696 ± 0.073
VRRVRGSKFFWR | 0.609 ± 0.12
VRSCGTAGKGVT | 0.615 ± 0.029

Sequence | protein stability index
VRTHRVRARAVE | 0.685 ± 0.019
VRTLGPLRPEGL | 0.74 ± 0.068
VRVEVVVFEGAG | 0.598 ± 0.034
VRVGNYTRARCK | 0.714 ± 0.035
VRVSPDVYGSFM | 0.5897 ± 0.0057
VRWISVGNGGVR | 0.725 ± 0.013
VRYRSGLVFEGV | 0.747 ± 0.039
VSCGVSEGDVVC | 0.675 ± 0.031
VSFCRVLQSSQS | 0.692 ± 0.021
VSFLVPRYLFSG | 0.654 ± 0.16
VSFNPAGYKSRN | 0.671 ± 0.042
VSFRAMDRLTSR | 0.6171 ± 0.0023
VSGDPWMWDVFI | 0.746 ± 0.036
VSGFPHASSSPT | 0.6225 ± 0.0052
VSGGGAPRSVWR | 0.706 ± 0.0083
VSGGGWDSCLSV | 0.724 ± 0.0082
VSGGRLVGWGGW | 0.731 ± 0.12
VSHCLLRAFSDC | 0.556 ± 0.011
VSHGPAIHALSI | 0.669 ± 0.028
VSIPRTLFITRF | 0.67018 ± 0.00016
VSIVTLSLSNFA | 0.611 ± 0.0072
VSLALYSSVSIC | 0.5382 ± 0.0049
VSLCGSGLGLWV | 0.682 ± 0.033
VSLCYGGGFWGR | 0.698 ± 0.018
VSLFETIPVLSR | 0.605 ± 0.014
VSLLIPVGVYPR | 0.667 ± 0.015

Sequence | protein stability index
VSLPGTWSSLSA | 0.6554 ± 0.0064
VSNVSGKEYINV | 0.681 ± 0.038
VSPAPSAILRLD | 0.6765 ± 0.0025
VSPDVYGVCLRL | 0.703 ± 0.081
VSPLDSPASLYS | 0.6573 ± 0.0062
VSPPLHFLPLHF | 0.6661 ± 0.004
VSRGGVAYGRVG | 0.742 ± 0.049
VSRQHLPAVLHL | 0.661 ± 0.024
VSSSQPGEYNIG | 0.7088 ± 0.0029
VSSSSPSNFIPL | 0.666 ± 0.093
VSTENDGCGTPR | 0.712 ± 0.022
VSVGWWVGFWGV | 0.6968 ± 0.0051
VSVRLWSGQSAG | 0.672 ± 0.11
VSWFVGFCLWFP | 0.5506 ± 0.0025
VTDSRAIMARRV | 0.645 ± 0.083
VTEWGVKWWEDR | 0.714 ± 0.11
VTKAALADLRHM | 0.609 ± 0.016
VTLFGVFQGFVG | 0.709 ± 0.02
VTLGQNGVSLRS | 0.596 ± 0.071
VVAIGRVWGERA | 0.68 ± 0.059
VVATRYGGCFRR | 0.669 ± 0.04
VVCKVLVTGIFD | 0.604 ± 0.0062
VVDGSILTIRCL | 0.6226 ± 0.0048
VVDPDVIGREIR | 0.706 ± 0.014
VVECGERWWCLT | 0.705 ± 0.032
VVEGVFGQRFAG | 0.701 ± 0.033

Sequence | protein stability index
VVFKPHEVRTSD | 0.717 ± 0.054
VVGAGTEWMVEV | 0.642 ± 0.025
VVGAWGRGGCGG | 0.633 ± 0.01
VVGGRWVVWSFK | 0.688 ± 0.018
VVGQGYDSGIRY | 0.724 ± 0.024
VVGRGGLICGRW | 0.625 ± 0.072
VVGSVQQSSDSC | 0.692 ± 0.07
VVIPLDKGVIVQ | 0.56 ± 0.014
VVKEGGGCREGR | 0.64 ± 0.028
VVKGGGLGRRAG | 0.66 ± 0.089
VVLFGAGGSWGG | 0.726 ± 0.063
VVMTAVEGMWDG | 0.5914 ± 0.0059
VVPLTPPLSAPR | 0.68 ± 0.031
VVPSMFPGAEVL | 0.691 ± 0.026
VVSFDPLFPSPR | 0.706 ± 0.037
VVSSSMGCCFRG | 0.659 ± 0.076
VVVGVGGCVYMG | 0.702 ± 0.06
VVVLCLFFSFFL | 0.5872 ± 0.0011
VVVSGGGEGFWL | 0.745 ± 0.027
VVWVCVRLPVRR | 0.53046 ± 0.00025
VVYGVSHEETST | 0.622 ± 0.018
VWAREGLGLRPP | 0.673 ± 0.11
VWDQTKKKKIKK | 0.704 ± 0.014
VWFSFGCGFFGR | 0.659 ± 0.061
VWGGVICFGLWM | 0.579 ± 0.02
VWGVFASPVVYR | 0.712 ± 0.049

Sequence | protein stability index
VWGWGAWGGCGG | 0.719 ± 0.067
VWLFAESFCGCV | 0.597 ± 0.036
VWLGGGVRLGRL | 0.738 ± 0.059
VWLGTGGSYGFC | 0.825 ± 0.16
VWRSAMIRVPPC | 0.608 ± 0.054
VWVAGGVLWVLG | 0.5433 ± 0.0042
VWVSHPWYMAFL | 0.618 ± 0.066
VYGIAPPTRCFS | 0.649 ± 0.024
VYKRNILHLASE | 0.681 ± 0.13
VYLSSSLFPPSS | 0.804 ± 0.042
VYLTGRCRRCLR | 0.702 ± 0.05
VYMDKKNKCIMK | 0.795 ± 0.15
VYRRWIKGKGRV | 0.675 ± 0.026
VYSPVEHLLATF | 0.59 ± 0.1
VYSRESMTGPVK | 0.7 ± 0.059
WAARLDISQSPI | 0.754 ± 0.011
WAERESLNGLSA | 0.718 ± 0.027
WAFGSTVSSGIV | 0.689 ± 0.017
WAGGFGGLGRDT | 0.744 ± 0.0089
WAGGGRVDDGGG | 0.643 ± 0.059
